Reference: the RNAGym collection of RNA variant scans (doi:10.1093/molbev/msab373)

B1: Azoarcus group I ribozyme (parent)
chain: GUGCCUUGCGCCGGGAAACCACGCAAGGGAUGGUGUCAAAUUCGGCGAAACCUAAGCGCCCGCCCGGGCGUAUGGCAACGCCGAGCCAAGCUUCGGCGCCUGCGCCGAUGAAGGUGUAGAGACUAGACGGCACCCACCUAAGGCAAACGCUAUGGUGAAGGCAUAGUCCAGGGAGUGGCGAAAGUCACACAAACCGG

Variants of: B1
Test: reverse-splicing fitness (ratio to wild type); higher = more active; in vitro selection; Mg2+ level not given
Outline: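 An in vitro group I ribozyme library with randomized positions was T7-transcribed and gel-purified. In triplicate, 10 pmol RNA in EPPS pH 7.5 was reacted with 50 pmoles of a 30-nt RNA substrate for 1 h at 37 °C across several added MgCl2 levels (1–48 mM), then stopped with EDTA. Products were reverse transcribed from a substrate-complementary primer, PCR-amplified and sequenced (HiSeq 4000). Fitness is a variant's read proportion after selection over that before, normalised to wild type.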

Going from C82G A111G A145C C169U U176G to C82G A111G A145C C169U U176A, the reverse-splicing fitness rises from 0.00545 to 0.0135.

Compared with C82G A111G A145C C169U U176C, C82G A111G A120U C169A U176A is lower in reverse-splicing fitness: 0.0106 for the first, 0.00371 for the second.

First: C82G A111G A120U C169A U176C
Second: C82G A111G A120U C169A U176G
The reverse-splicing fitness of the first is higher: 0.00309 for the first, 0.00169 for the second.

Compared with C82G A111G A120U C150G C169U U176G, C82G A111G A120U C150G C169U U176A is higher in reverse-splicing fitness: 0.00278 for the first, 0.00421 for the second.

Compared with C82G A111G A120U C150G C169U U176C, C82G A111G A120U A145C C150U C169A U176A is lower in reverse-splicing fitness: 0.00723 for the first, 0.00272 for the second.

Compared with C82G A111G A120U A145C C150U C169A U176C, C82G A111G A120U A145C C150U C169A U176G is higher in reverse-splicing fitness: 0.00184 for the first, 0.00197 for the second.

Going from C82G A111G A120U A145C C150A C169U U176G to C82G A111G A120U A145C C150A C169U U176C, the reverse-splicing fitness rises from 0.0019 to 0.00238.

Compared with C82G A111G A120U A145C C150A C169U U176A, C82G A111G A120U C150U C169A is higher in reverse-splicing fitness: 0.00266 for the first, 0.00504 for the second.

Going from C82G A111G A120U C150U C169U to C82G A111G A120U C150U C169G, the reverse-splicing fitness rises from 0.00493 to 0.00538.

Compared with C82G A111G A120U C150U C169U U176A, C82G A111G A120U C150U C169U U176G is lower in reverse-splicing fitness: 0.00523 for the first, 0.00214 for the second.

Compared with C82G A111G A120U C150U C169U U176C, C82G A111G A120U A145G C150G C169A is higher in reverse-splicing fitness: 0.0051 for the first, 0.00921 for the second.

First: C82G A111G A120U A145G C150G C169U
Second: C82G A111G A120U A145G C150G C169G
The reverse-splicing fitness of the first is higher: 0.00737 for the first, 0.00722 for the second.

Going from C82G A111G A120U A145C C150G U176C to C82G A111G A120U A145C C150G U176G, the reverse-splicing fitness falls from 0.00396 to 0.00247.

Going from C82G A111G A120U A145C C150G U176A to C82G A111G A120U A145C C150G C169A U176G, the reverse-splicing fitness falls from 0.00327 to 0.00183.

First: C82G A111G A120U A145C C150G C169A U176C
Second: C82G A111G A120U A145C C150G C169A U176A
The reverse-splicing fitness of the first is lower: 0.00236 for the first, 0.00237 for the second.

First: C82G A111G A120U A145G C169A U176A
Second: C82G A111G A120U A145G C169A U176G
The reverse-splicing fitness of the first is higher: 0.00574 for the first, 0.00176 for the second.

Compared with C82G A111G A120U A145G C169A U176C, C82G A111G A120U A145G C150G C169A U176G is lower in reverse-splicing fitness: 0.00535 for the first, 0.00448 for the second.

Going from C82G A111G A120U A145G C150G C169A U176C to C82G A111G A120U A145G C150G C169A U176A, the reverse-splicing fitness rises from 0.0099 to 0.0115.

First: C82G A111G A120U A145C C169G U176G
Second: C82G A111G A120U A145C C169G U176A
The reverse-splicing fitness of the first is lower: 0.00165 for the first, 0.00244 for the second.

First: C82G A111G A120U A145C C169G U176C
Second: C82G A111G A145C C150U C169G
The reverse-splicing fitness of the first is lower: 0.00181 for the first, 0.00753 for the second.

First: C82G A111G A145C C150U C169A
Second: C82G A111G A145C C150U C169U
The reverse-splicing fitness of the first is lower: 0.00783 for the first, 0.0102 for the second.

Compared with C82G A111G A120U A145C C150G C169U U176C, C82G A111G A120U A145C C150G C169U U176G is lower in reverse-splicing fitness: 0.00238 for the first, 0.00221 for the second.

Going from C82G A111G A120U A145C C150G C169U U176A to C82G A111G A120U A145C C169U, the reverse-splicing fitness rises from 0.00286 to 0.00478.

Going from C82G A111G A120U A145C C169A to C82G A111G A120U A145C C169G, the reverse-splicing fitness rises from 0.00211 to 0.00347.

Going from C82G A111G A145C C150A U176A to C82G A111G A145C C150A U176G, the reverse-splicing fitness falls from 0.0205 to 0.00955.

Compared with C82G A111G A145C C150A U176C, C82G A111G A120G C169G U176G is lower in reverse-splicing fitness: 0.0173 for the first, 0.00487 for the second.

Going from C82G A111G A120G C169G U176C to C82G A111G A120G C169U, the reverse-splicing fitness falls from 0.0232 to 0.0144.

First: C82G A111G A120U A145C C169A U176A
Second: C82G A111G A120U A145C C169A U176G
The reverse-splicing fitness of the first is higher: 0.00186 for the first, 0.00182 for the second.

Going from C82G A111G A120U A145C C169A U176C to C82G A111G A120U A145G C150G C169U U176C, the reverse-splicing fitness rises from 0.00168 to 0.009.

First: C82G A111G A120U A145G C150G C169U U176G
Second: C82G A111G A120U A145G C150G C169U U176A
The reverse-splicing fitness of the first is lower: 0.00375 for the first, 0.00708 for the second.

Compared with C82G A111G A120U A145U C150U C169U, C82G A111G A120U A145U C150U C169A is lower in reverse-splicing fitness: 0.00393 for the first, 0.00289 for the second.

Compared with C82G A111G A120U A145U C150U C169G, C82G A111G A145C C150A is higher in reverse-splicing fitness: 0.00324 for the first, 0.0192 for the second.

Going from C82G A111G A145C C150U to C82G A111G A145C C150G, the reverse-splicing fitness falls from 0.0841 to 0.0378.

Going from C82G A111G A120U C150U C169G U176C to C82G A111G A120U C150U C169G U176G, the reverse-splicing fitness falls from 0.00412 to 0.0024.

Going from C82G A111G A120U C150U C169G U176A to C82G A111G A145C C150U C169U U176C, the reverse-splicing fitness rises from 0.00758 to 0.0103.

First: C82G A111G A145C C150U C169U U176G
Second: C82G A111G A145C C150U C169U U176A
The reverse-splicing fitness of the first is lower: 0.0062 for the first, 0.0142 for the second.

First: C82G A111G A120U C150A C169A U176A
Second: C82G A111G A120U C150A C169A U176C
The reverse-splicing fitness of the first is higher: 0.00549 for the first, 0.00424 for the second.

Compared with C82G A111G A120U C150A C169A U176G, C82G A111G A120U A145U C150A C169G is higher in reverse-splicing fitness: 0.00223 for the first, 0.0027 for the second.

Going from C82G A111G A120U A145U C150A C169U to C82G A111G A120U A145U C150A C169A, the reverse-splicing fitness falls from 0.0024 to 0.00193.

Going from C82G A111G A120U A145G C169U U176A to C82G A111G A120U A145G C169U U176C, the reverse-splicing fitness rises from 0.00415 to 0.00485.

Going from C82G A111G A120U A145G C169U U176G to C82G A111G A120U A145U C150U C169G U176A, the reverse-splicing fitness rises from 0.00164 to 0.0031.

Work on C82G A111G A120U A145U C150U C169G U176G yielded a reverse-splicing fitness of 0.00218.
